Patent US20050064507A1, “Determining kinase specificity” (priority 2003, published 2005)

How the values were obtained:
PKC-alpha = target: T1, PKC-alpha (Homo sapiens, UniProt P17252); experiment: In vitro kinase assay: peptide phosphorylation by PKC-alpha; format: biochemical; settings: for PKC alpha phosphorylation: normalized to best substrate
T1 construct: purchased Calbiochem
Description: (§1) Catalytically active preparations of the kinases of interest were either purchased or prepared. Purchased and tested active kinase preparations including the following: PKC-alpha, PKC-delta, PKC-epsilon, PKC-zeta, PKC-mu, PKA, PKG from Calbiochem, ROK alpha/ROCK-II, active from Upstate Biotechnology, and AKT1 from Panvera.
(§2) The conditions of the kinase assay and the amount of active kinase used varied with the kinase and with the accuracy needed. For a typical experiment, 5-20 ng of kinase was used per well and each peptide pool was assayed in duplicate wells. Note that the absolute amount of kinase used was not usually a critical parameter, because the desired information related to specificity of the kinase not its absolute activity, and robustness of the assay depends on comparisons of the same amount of kinase on different peptides. The combination of kinase concentration and assay duration was modified to assure that the stoichiometry of peptide phosphorylation never exceeded 5%. The choice of kinase buffer depended on the kinase being analyzed. For studies of PKC, 100 mM HEPES, 0.05% Triton-X100, 1 mM CaCl2, 20 mM MgCl2, 0.2 mg/ml phosphatidyl serine (Avanti Polar Lipids), PMA 100 ng/ml was typically used. The lipid stock was prepared by transferring 3 mg phosphatidyl serine into iced mixture of 450 μl water plus 50 μl of 10% Triton-X100, sonicating 10 times on ice for 1 sec each.
(§3) The kinase reaction mixture was assembled by sequential addition to a tube held on ice of: 5 μl peptide (100 μM for final concentration of 10 μM), 15 μl of kinase (typically 5 ng/well, in appropriate kinase buffer), 30 μl of ATP (1 uCi/well of ^32P-gamma ATP in a stock of 167 μM cold ATP in the kinase buffer; for final concentration for 100 μM ATP). The mixture was rapidly warmed to desired reaction temperature (30° C. for PKC) and incubated for the desired duration (usually 10 minutes). The kinase assay was terminated by transfer to 4° C. water batch, and rapid addition of an equal volume (50 μl) of stop solution [0.1M ATP+0.1M EDTA in water, pH 8].
(§4) The peptides were then captured from the reaction mixture by transfer to a Reacti-Bind Streptavidin High Binding Capacity Coated Plates (HBC) (Pierce Biotechnology) as follows. The HBC plates were pre-rinsed three times with PBS/Tween PBS/Tween20 0.05% (PBS/Tween). Part of all of the reaction mixture was then transferred wells of a HBC plate pre-filled with 90 μl of phosphate-buffered saline (PBS); typically each aliquots of each phosphorylation reaction were transferred to duplicate HBC plates to assure accuracy by additional replication
(§5) For kinase assays done at the standard peptide concentration of 10 μM, the peptide concentration in the reaction mixture becomes 5 μM after addition of the stop solution; consequently 10 μl of the reaction (50 pMoles of peptide) was transferred to the HBC plate. More generally, the amount of reaction mixture transferred was estimated to be about 50 pMoles of peptide. […] The HBC plates were incubated for 0.5 to 1.5 hr at room temperature for complete binding of biotinylated peptides to plate-bound streptavidin. The HBC plates were then washed extensively with PBS/Tween. Five washes were done routinely and additional wash steps were added if the wash solution removed from the plate had measurable radioactivity as detected using a Geiger counter. This step is essential to obtaining a good the signal to noise ratio because the fraction of radioactivity incorporated in the peptides was a tiny fraction of the total in the reaction mixture. The wells were air-dried. A volume of 40-50 μl of microScint-20 (Packard Instruments) was added to each well. The plates were covered with stick-on film sheet. Radioactive emissions were measured in a TopCount NXT Microplate Scintillation and Luminescence Counter (Packard Instruments). Typically samples were counted for 5 minutes (or more) to improve the signal to noise ratio when counts were low. […]

PKC-epsilon = target: T2, PKC-epsilon (Homo sapiens, UniProt Q02156); experiment: In vitro kinase assay: peptide phosphorylation by PKC-epsilon; format: biochemical; settings: for PKC-epsilon phosphorylation: normalized to best substrate; for phosphorylation by PKC epsilon: peptide concentration 1 uM
T2 construct: purchased Calbiochem
T2 sequence (Q02156 1-737): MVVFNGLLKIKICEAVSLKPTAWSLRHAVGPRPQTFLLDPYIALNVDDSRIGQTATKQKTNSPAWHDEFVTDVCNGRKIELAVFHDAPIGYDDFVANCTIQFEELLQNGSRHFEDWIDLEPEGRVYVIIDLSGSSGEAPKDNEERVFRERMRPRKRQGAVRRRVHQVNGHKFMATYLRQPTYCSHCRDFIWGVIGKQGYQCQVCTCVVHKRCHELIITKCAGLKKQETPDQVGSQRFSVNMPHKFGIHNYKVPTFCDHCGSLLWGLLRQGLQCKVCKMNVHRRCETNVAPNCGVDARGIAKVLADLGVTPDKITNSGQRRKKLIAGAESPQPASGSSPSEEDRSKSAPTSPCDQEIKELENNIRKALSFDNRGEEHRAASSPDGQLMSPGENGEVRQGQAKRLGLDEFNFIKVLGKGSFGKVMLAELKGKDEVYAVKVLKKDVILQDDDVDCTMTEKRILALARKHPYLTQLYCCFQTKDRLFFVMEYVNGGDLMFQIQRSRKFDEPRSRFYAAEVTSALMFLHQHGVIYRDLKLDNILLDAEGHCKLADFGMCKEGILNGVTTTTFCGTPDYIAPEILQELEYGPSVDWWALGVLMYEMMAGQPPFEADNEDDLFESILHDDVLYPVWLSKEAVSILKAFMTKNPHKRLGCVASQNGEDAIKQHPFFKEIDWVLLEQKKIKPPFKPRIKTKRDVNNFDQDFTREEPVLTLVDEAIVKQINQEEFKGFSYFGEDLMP
Description: as §1, §2, §3, §4, §5

| Substance | PKC alpha phosphorylation (PKC-alpha) | PKC-epsilon phosphorylation (PKC-epsilon) | phosphorylation by PKC alpha (PKC-alpha; peptide concentration 1 uM) | phosphorylation by PKC alpha (PKC-alpha; peptide concentration 10 uM) | phosphorylation by PKC epsilon (PKC-epsilon) |
| --- | --- | --- | --- | --- | --- |
| 76 (HVRRRRGTFKRSKLRARD) [compound 76] | 62% | 100% | – | – | – |
| 77 (KKKKRASFKRKSSKKG) [compound 77] | 100% | 71% | – | – | – |
| 78 (KFARKSTRRSIRLPE) [compound 78] | 69% | 84% | – | – | – |
| 79 (NRKKKRTSFKRKA) [compound 79] | 50% | 92% | – | – | – |
| 80 (KKKKKRFSFKKSFKL) [compound 80] | 65% | 71% | – | – | – |
| 82 (PRLIRRGSKKRPAR) [compound 82] | 61% | 72% | – | – | – |
| 83 (RKIPKRPGSVHRTPSRQ) [compound 83] | 41% | 47% | – | – | – |
| 84 (QKKSRLRRRASQLKI) [compound 84] | 39% | 52% | – | – | – |
| 85 (RFARKGSLRQKNV) [compound 85] | 42% | 86% | – | – | – |
| 86 (RQRKRKLSFRRRTDKD) [compound 86] | 47% | 63% | – | – | – |
| 89 (EYLERRASRRRAV) [compound 89] | 37% | 45% | – | – | – |
| 90 (AQIVKRASLKRGKQ) [compound 90] | 40% | 49% | – | – | – |
| 92 (DGQKRKKSLRKKLD) [compound 92] | 36% | 51% | – | – | – |
| 93 (AARKKRISVKKKQEQ) [compound 93] | 34% | 40% | – | – | – |
| 94 (KLAVGRHSFSRRSGV) [compound 94] | 34% | 13% | – | – | – |
| 95 (KKKFRTPSFLKKSKK) [compound 95] | 34% | 31% | – | – | – |
| 96 (RGFLRSASLGRRASFHLE) [compound 96] | 40% | 41% | – | – | – |
| 99 (AGWRKKTSFRKPKED) [compound 99] | 37% | 27% | – | – | – |
| 100 (WKGKRRSKARKKRK) [compound 100] | 14% | 13% | – | – | – |
| 101 (GAPPRRSSIRNAH) [compound 101] | 32% | 19% | – | – | – |
| 102 (AGSFKRNSIKKIV) [compound 102] | 35% | 14% | – | – | – |
| 103 (LLKKRDSFRTPRDSKLE) [compound 103] | 32% | 21% | – | – | – |
| 104 (EKIKRSSLKKVDSLKK) [compound 104] | 34% | 17% | – | – | – |
| 105 (ALRRPSLRREADD) [compound 105] | 26% | 29% | – | – | – |

| Substance | PKC alpha phosphorylation (PKC-alpha) | PKC-epsilon phosphorylation (PKC-epsilon) | phosphorylation by PKC alpha (PKC-alpha; peptide concentration 1 uM) | phosphorylation by PKC alpha (PKC-alpha; peptide concentration 10 uM) | phosphorylation by PKC epsilon (PKC-epsilon) |
| --- | --- | --- | --- | --- | --- |
| 106 (EILSRRPSYRKILND) [compound 106] | 23% | 31% | – | – | – |
| 107 (QKRHARVTVKYDRRE) [compound 107] | 18% | 7% | – | – | – |
| 108 (KATTKKRTLRKNDRK) [compound 108] | 19% | 8% | – | – | – |
| 109 (KEVVRTDSLKGRRGR) [compound 109] | 21% | 26% | – | – | – |
| 110 (EGGDRRASGRRK) [compound 110] | 30% | 4% | – | – | – |
| 111 (KKKRFSFKKSFKLSGFSFKK) [compound 111] | 11% | 12% | – | – | – |
| 112 (KRPGKKGSNKRPGKR) [compound 112] | 10% | 11% | – | – | – |
| 113 (GENVLKKSMKSRVKG) [compound 113] | 16% | 10% | – | – | – |
| 114 (KKKKRASFKRKSSKKG) [compound 114] | – | – | 100 | 100 | 100 |
| 115 (NRKKKRTSFKRKA) [compound 115] | – | – | 55 | 56 | 91 |
| 116 (EEGTFRSSIRRLSTRRR) [compound 116] | – | – | 70 | 57 | 92 |
| 117 (NRKKKRTSFKRKA) [compound 117] | – | – | 40 | 39 | 67 |
| 118 (RPQNTLKASKKKKRASFKRK) [compound 118] | – | – | 46 | 60 | 89 |
| 119 (KKRFSFKKSFKLSGFSFKKN) [compound 119] | – | – | 94 | 98 | 81 |
| 120 (AKRRRLSSLRASTSK) [compound 120] | – | – | 55 | 58 | 56 |
| 121 (LRRRSLRRSNSISKSPGP) [compound 121] | – | – | 33 | 29 | 49 |
| 122 (RAITSTLASSFKRRR) [compound 122] | – | – | 43 | 44 | 72 |
| 123 (KKRFSFKKSFKLSGFSFKKN) [compound 123] | – | – | 58 | 73 | 67 |
| 124 (PRLIRRGSKKRPAR) [compound 124] | – | – | 48 | 24 | 49 |
| 125 (PLKEKKRERKTSSKSSVRKR) [compound 125] | – | – | 34 | 31 | 48 |
| 126 (KAIKAIEGGQKFARKSTRRS) [compound 126] | – | – | 36 | 34 | 69 |
| 127 (SQVQKQRSAGSFKRNSIKKI) [compound 127] | – | – | 40 | 39 | 32 |
| 128 (QQVDRERPHVRRRRGTFKRS) [compound 128] | – | – | 25 | 33 | 32 |
